Data reported in patent US20230183353A1 (ZYDUS LIFESCIENCES, published 2023).
Residue numbers refer to the chain shown, from its start. In names and notes the source's numbering stands. One block for each binder: values may come before it.

How the values were obtained:
[1] = biological target: T1, recombinant human neonatal Fc receptor (rhFcRn) (human, UniProt P55899 24-297; P61769 21-119); experiment: SPR (ProteOn XPR36), rhFcRn immobilised on GLC chip, pH 6.0, 25 C
T1 construct: Bought recombinant protein (Sino Biologics), immobilised on a GLC chip; also called Human FcRn; FcRn/FcGRT
Experimental: The kinetic constants for the binding of Fc variants to recombinant human neonatal Fc receptor (rhFcRn) were determined by Surface Plasmon Resonance-based measurement using the ProteOn™ XPR36 (Bio-Rad). The rhFcRn receptor (Sino Biologics) was immobilized on a GLC chip following manufacturer's instruction. 10 mM phosphate buffer saline (PBS) (10 mM phosphate buffer, pH 6.0, 150 mM NaCl, with 0.005% Tweet 20) was used as running buffer to carry out the kinetic measurements. […] Reactions were carried in PBS (pH 6.0, 0.005% surfactant P20) at 25° C. After each sample run, the chip surface was regenerated using two pulses of PBS (0.005% surfactant P20), pH 7.4, followed by one pulse of glycine buffer pH 1.5. The data, in the form of sensograms, was analysed using the data-fitting programs in the ProteOn™ system.

[2] = biological target: T2, recombinant human FcγRIIIa (Val) (human, UniProt P08637 17-208, limits assumed); experiment: SPR (ProteOn), receptor immobilised on GLC chip by amine coupling, pH 7.4, 25 C
T2 construct: Directly immobilised on a GLC chip by amine coupling; also called FcγRIIIa V158; CD16a
T2 sequence (P08637 17-208 F176V limits assumed): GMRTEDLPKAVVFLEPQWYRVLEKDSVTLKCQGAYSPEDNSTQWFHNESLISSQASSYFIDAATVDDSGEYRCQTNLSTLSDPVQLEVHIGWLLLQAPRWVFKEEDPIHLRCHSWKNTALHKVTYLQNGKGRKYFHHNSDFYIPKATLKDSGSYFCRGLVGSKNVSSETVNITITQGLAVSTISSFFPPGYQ
Experimental: (§1) In this experiment, the kinetic constants for the binding of Fc variant to recombinant Fc gamma receptors were determined by Surface Plasmon Resonance-based measurement using the ProteOn™ […] (Bio-Rad). […] All the recombinant human Fc receptors were directly immobilized on a GLC sensor chip surface using a standard amine coupling chemistry, and essentially, following the manufacturers' instruction. 10 mM phosphate buffered saline (PBS) (10 mM phosphate buffer, pH 7.4, 150 mM NaCl, with 0.005% Tween 20) was used as the running buffer to carry out the kinetic measurements for all the Fc receptor. To measure the association rate constant (kassoc) and dissociation rate constant (kdissoc), five dilutions of Fc variants were prepared in above mentioned running buffer and injected at a flow rate of 50 μL/min. Association time and dissociation time at each interaction is mentioned in table below. All the reactions were performed at 25° C. The data, in the form of sensorgrams, were analyzed using the data-fitting programs available with the ProteOn™ system.

[3] = biological target: T3, recombinant human FcγRIIIa (Phe) (human, UniProt P08637 17-208, limits assumed); experiment: as above
T3 construct: Directly immobilised on a GLC chip by amine coupling; also called FcγRIIIa F158; CD16a
T3 sequence (P08637 17-208 limits assumed): as the sequence (P08637 17-208 F176V limits assumed) above, with V160F counted along it
Experimental: as §1

[4] = biological target: T1, recombinant human neonatal Fc receptor …; experiment: SPR (ProteOn XPR36), FcRn immobilised on GLC chip by amine coupling, pH 6.0, 25 C
Experimental: (§2) In this experiment, binding of the Fc variant of the current invention to FcRn of different species was determined by surface plasmon resonance-based measurement using the ProteOn™ XPR36 (Bio-Rad). […] Fc variant used to conduct this experiment was produced using CHO cell as an expression system. FcRn (of different species) was immobilized on a GLC sensor chip surface using a standard amine coupling chemistry, and essentially, following the manufacturers' instruction. 10 mM phosphate buffered saline (PBS) (10 mM phosphate buffer, pH 6.0, 150 mM NaCl, 0.005% Tween 20) was used as the running buffer to carry out the kinetic measurements. To measure the association rate constant (kassoc) and dissociation rate constant (kdissoc), five dilutions of Fc muteins were prepared in above mentioned running buffer and injected at a flow rate of 100 μL/min with an association time of 180 s and dissociation time of 600 s. All the reactions were carried at 25° C. After each sample run, the chip surface was regenerated using PBST, pH 7.4. The data, in the form of sensorgrams, was analyzed using the data-fitting programs in the ProteOn™ system.

recombinant monkey FcRn = recombinant monkey FcRn (monkey); experiment: as above
Chain of recombinant monkey FcRn (monkey) (Q8SPV9 24-297, chain 1 of 2): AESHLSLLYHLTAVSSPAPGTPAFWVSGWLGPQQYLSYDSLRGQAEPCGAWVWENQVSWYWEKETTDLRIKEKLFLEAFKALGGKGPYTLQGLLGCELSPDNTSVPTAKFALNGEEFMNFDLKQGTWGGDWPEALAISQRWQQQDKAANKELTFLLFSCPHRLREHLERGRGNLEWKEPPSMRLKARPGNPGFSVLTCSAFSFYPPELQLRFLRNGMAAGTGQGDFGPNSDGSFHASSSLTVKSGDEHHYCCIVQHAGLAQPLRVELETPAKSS
Chain of recombinant monkey FcRn (monkey) (Q8SPW0 21-119, chain 2 of 2, further chain): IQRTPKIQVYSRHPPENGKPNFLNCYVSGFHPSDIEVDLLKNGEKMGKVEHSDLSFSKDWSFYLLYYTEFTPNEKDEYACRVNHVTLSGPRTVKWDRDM
Experimental: as §2

recombinant mouse FcRn = recombinant mouse FcRn (mouse, UniProt Q61559 22-297); experiment: as above
Chain of recombinant mouse FcRn (Q61559 22-297): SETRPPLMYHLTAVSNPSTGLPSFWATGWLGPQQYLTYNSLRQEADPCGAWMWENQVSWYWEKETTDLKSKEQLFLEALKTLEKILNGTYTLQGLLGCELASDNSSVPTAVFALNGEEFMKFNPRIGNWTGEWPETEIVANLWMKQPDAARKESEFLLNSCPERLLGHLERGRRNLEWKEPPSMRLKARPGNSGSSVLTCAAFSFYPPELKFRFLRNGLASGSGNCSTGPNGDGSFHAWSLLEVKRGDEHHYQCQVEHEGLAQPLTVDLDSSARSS
Experimental: as §2

Kd [1]: 3630 pM
B1: Fc variant F3-9 (SEQ ID No. 20; L432M/H433P/N434F) (other)
chain: DKTHTCPPCPAPELLGGPSVFLFPPKPKDTLMISRTPEVTCVVVDVSHEDPEVKFNWYVDGVEVHNAKTKPREEQYNSTYRVVSVLTVLHQDWLNGKEYKCKVSNKALPAPIEKTISKAKGQPREPQVYTLPPSRDELTKNQVSLTCLVKGFYPSDIAVEWESNGQPENNYKTTPPVLDSDGSFFLYSKLTVDKSRWQQGNVFSCSVMHEAMPFHYTQKSLSLSPGK

Kd [1]: 288 pM
Kd [2]: 205000 pM
Kd [3]: 241000 pM
Kd [4]: 791 pM
Kd (recombinant monkey FcRn): 801 pM
Kd (recombinant mouse FcRn): 615 pM
B2: Fc variant H11+A4 (SEQ ID No. 22; T307N/V308P/L309Y/H433R/N434W), Fc monomer (other)
chain: B1 chain with T87N, V88P, L89Y, M212L, P213R, F214W
notes: also called 22b
